Test results reported in patent US9637538.

What was measured:
[1] = molecular target: HLA class II antigens (HLA-DR, HLA-DQ and HLA-DP); assay: Luminex, Labscreen Mixed, each of the 5 class II bead types, antibody at 2 µg/ml
[2] = molecular target: HLA class II antigens (HLA-DR, HLA-DQ and HLA-DP); assay: Luminex dose/response, average over 5 class II bead types, antibody at 2 × 10^0 µg/ml
[3] = molecular target: HLA class II antigens (HLA-DR, HLA-DQ and HLA-DP); assay: Luminex dose/response, average over 5 class II bead types, antibody at 2 × 10^-3 µg/ml
[4] = molecular target: HLA class II antigens (HLA-DR, HLA-DQ and HLA-DP); assay: Luminex dose/response, average over 5 class II bead types, antibody at 5 × 10^-1 µg/ml
[5] = molecular target: HLA class II antigens (HLA-DR, HLA-DQ and HLA-DP); assay: Luminex dose/response, average over 5 class II bead types, antibody at 5 × 10^-4 µg/ml
[6] = molecular target: HLA class II antigens (HLA-DR, HLA-DQ and HLA-DP); assay: Luminex dose/response, average over 5 class II bead types, antibody at 7.8 × 10^-3 µg/ml
[7] = molecular target: HLA class II antigens (HLA-DR, HLA-DQ and HLA-DP); assay: Luminex dose/response, average over 5 class II bead types, antibody at 1.25 × 10^-1 µg/ml
[8] = molecular target: HLA class II antigens (HLA-DR, HLA-DQ and HLA-DP); assay: Luminex dose/response, average over 5 class II bead types, antibody at 3.13 × 10^-2 µg/ml
[9] = molecular target: HLA class II antigens (HLA-DR, HLA-DQ and HLA-DP); assay: Boltzmann sigmoid fit of the Luminex titration curve; asymptote at infinite concentration
[10] = molecular target: HLA class II antigens (HLA-DR, HLA-DQ and HLA-DP); assay: Boltzmann sigmoid fit of the Luminex titration curve; asymptote as the concentration tends to 0
[11] = molecular target: HLA class II antigens (HLA-DR, HLA-DQ and HLA-DP); assay: Boltzmann sigmoid fit of the Luminex titration curve; concentration at 50% of the specific signal (MAX-MIN)

- fluorescence (average fluorescence units) [1]: 22000
- Average fluorescence intensity (fluorescence intensity) [2]: 23600
- Average fluorescence intensity (fluorescence intensity) [3]: 1090
- Average fluorescence intensity (fluorescence intensity) [4]: 22800
- Average fluorescence intensity (fluorescence intensity) [5]: 316
- Average fluorescence intensity (fluorescence intensity) [6]: 3520
- Average fluorescence intensity (fluorescence intensity) [7]: 18000
- Average fluorescence intensity (fluorescence intensity) [8]: 9130
- MAX [9]: 24600 fluorescence
- MIN [10]: 88 fluorescence
- EC50 [11]: 0.05 µg/mL
B1: monoclonal chimeric immunoglobulin Hu-IgG1 K [F3.3] (antibody, V domains shown)
VH: EVKLEESGGGLVQPGGSMKLSCVASGFTFSNSWMNWVRQSPEKGLEWVAEIRLKSNNYATRYAESVKGRFTISRDDSKSSVYLQMNNLRSEDTAIYYCTPLSYSFDYWGQGTTVTVST
VL: QIVLTQSPAIMSASPGEKVTMTCSASSIVRYMYWFQQKPGSSPRLLIYDTSSLSSGVPVRFSGSGSGTSYSLTISRMEAEDAATYFCQQWSSYPLTFGGGTKLEIKR
